Measurements reported in the supplement of paper PMC9170038.

Columns and labels:
MS2 coat protein [1] = assay: apparent KD of MS2 coat protein, switch OFF state (with FMN for OFF switches, without FMN for ON switches); designed switch direction (-1 OFF switch, 1 ON switch): -1; higher = weaker reporter binding; conditions: FMN input: 0 or 200 uM; Eterna round: R93 (includes R88 designs)
In short: (§1)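 Apparent KD is reported per design as the median of normalised binding-curve fits across its clusters. The RNA switches were made by on-chip transcription from Illumina sequencing clusters. SNAP-549-labelled MS2 coat protein was then added in twofold steps (0.7 or 1.5 nM to 3 µM; 0.8–1.5 h to 10–20 min per step) in 100 mM Tris-HCl pH 7.5, 80 mM KCl, 4 mM MgCl2, without or with constant ligand.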

MS2 coat protein [2] = assay: apparent KD of MS2 coat protein, switch ON state; designed switch direction (-1 OFF switch, 1 ON switch): -1; higher = weaker reporter binding; conditions: FMN input: 0 or 200 uM; Eterna round: R93 (includes R88 designs)
In short: as §1

| Sequence | apparent KD of MS2 coat protein (MS2 coat protein [1]) [nM] | apparent KD of MS2 coat protein (MS2 coat protein [2]) [nM] |
| --- | --- | --- |
| AAAACGGUAGGAUAUACAAUUGGGAACUAGACCGAAAAAAAACAUGAGGAUCACCCAUGUAGAAGGGCCAAAAA [Ex2 Malc#11] | 91.2 | 47.8 |
| GAAAACUGAGGAUAUACUUUGGGAAAAGAAAAGAUGAUGUUACAUGAGGAUCACCCAUGUAGAAGGCAGAAAAA [Default title] | 39.4 | 26.4 |
| AAAAAACAUGAGGAUCACCCAUGUUAGGAUAUUCCUAAAAAAAAAAAAAAAAAAAAUGGAAGAAGGAACAAAAA [excalibur10] | 30.2 | 23.5 |
| GAAAAGCAAGGAUAUACAUGAGGAUCACCCAUGUAACCUGAAAGCAUGAUCGGUGACAGUAGAAGGUGCGAAAU [Tixegerice] | 56.9 | 22.3 |
| AUAAAACAUGAGGAUCACCCAUGUGAGGAUAUCUAAAAAGAAAGAAAAAAAAAAAAAAAGAGAAGGCACAAUAA [Amethyst 45] | 31.8 | 27.7 |
| AAAAAGCGAGGAUAUACGAAGCUAAGACAAAUAAGCAAGGGACAUGAGGAUCACCCAUGUAGAAGGCGCAAAAA [Exclusion 2-01... 60% 2] | 58.6 | 29.4 |
| UAGAACCUAGGAUAUACUUGGAAAAAUAAUGCAAAGAUAUAACAUGAGGAUCACCCAUGUAGAAGGAGGAGUAA [JR_Exc002_Sub020] | 35.9 | 48.5 |
| AAAAAGUGAGGAUAUCUGGAUAGGAAAAAGAAAACCUAUCCAGAGAAGGCACAUGAGGAUCACCCAUGUAAAAA [JL cataway mod 5] | 41.2 | 31.6 |
| AAAGGACAUGAGGAUCACCCAUGUGAGGAUAUGACGUAAAGAAAGAAAGAAGAAAUCGUCAGAAGGCACACCUA [Mat - Exclusion 1 - Eli mod - D69] | 36.5 | 35.4 |
| AGGAAACAUGAGGAUCACCCAUGUCAGGAUAUUGGAAAGAAAAGAAAAGAAAGAAGAAUAAGAAGGGACAAGAA [Hor-Aha] | 25.1 | 38.7 |
| AUCGAUCGAGGAUAUACAUGAGGAUCACCCAUGUAAAGCAGAAGAAAGGCCUCAGGAUGUAGAAGGCGACGCAA [JR_Exc003_Sub404] | 41.9 | 17.1 |
| ACAGCGUGAGGAUAUACAUGAGGAUCACCCAUGUGAAACAGGAAAAACUGAAAGACAUGUAGAAGGCACGCUGA [Exclusion 3.3 (Janderson's 'Tweaking Eli' some more )] | 28.7 | 263 |
| AUCUUGUCAGGAUAUCGUAUAAUAUGGAAAACAUAGAGAUACGAGAAGGGACAUGAGGAUCACCCAUGUAAAAC [May 97] | 40 | 41.7 |
| UGCAGGUGAGGAUAUGCGGGCGAUUAAACAUAUAAAUGCAAGCAGAAGGCACAUGAGGAUCACCCAUGUAGUCC [Ex4Try2_Neo] | 29.6 | 30.8 |
| AUCAUGUAAGGAUAUUAAAGAAAAGAAAAGAAAGAAAAGAAUAAGAAGGUACAUGAGGAUCACCCAUGUAAGAA [EteRNA is fun!] | 17 | 27 |
| AAGAACACAGGAUAUACAUGAAAGAAAGAAAAGAAAAGAAAACAUGAGGAUCACCCAUGUAGAAGGGUGUAGAA [EteRNA is fun!] | 532 | 454 |
| AGCUAGUCAGGAUAUACAAACAUGUCAAAAGACGUGAAGGAACAUGAGGAUCACCCAUGUAGAAGGGACUAGCA [Web Mod 74% 3] | 19.5 | 21 |
| AGUUGGCGAGGAUAUACAUGAGGAUCACCCAUGUGAGAGUAAAGAGUGAGAAAGAGAAGUAGAAGGCGCUGACA [Ruby 56] | 180 | 81.1 |

| Sequence | apparent KD of MS2 coat protein (MS2 coat protein [1]) [nM] | apparent KD of MS2 coat protein (MS2 coat protein [2]) [nM] |
| --- | --- | --- |
| AAAAAAGCAGGAUAUACGAACAUGUCGAAAGACGUGAAGGGACAUGAGGAUCACCCAUGUAGAAGGGUUAAGAA [Mat - Exclusion 2 - JL mod - D75] | 55 | 166 |
| AAAAAAGGAGGAUAUACAUGAGGAUCACCCAUGUAAAAAGGGAAAAAAAAAAAAAAAAGUAGAAGGCCUAAAAA [JR_Exc003_Sub1701] | 65.1 | 41.7 |
| ACGUAGAGAGGAUAUACGAACAUGUCAAAAGACGUGAAGGGACAUGAGGAUCACCCAUGUAGAAGGCUCUACGA [Mat - Exclusion 2 - JL mod - D8] | 172 | 54.8 |
| AACAGGUCAGGAUAUGUGCAACAGAAAAGAGCAGAAUAAGCACAGAAGGGACAUGAGGAUCACCCAUGUUAACA [May 27] | 32.2 | 24.6 |
| AAAAAACAUGAGGAUCACCCAUGUAAGGAUAUGCUAAAAAACGCAAAAAAAGCGAAUAGCAGAAGGUACAAAAA [66%, Wbt, 29] | 35.9 | 19.4 |
| AAGGAGUGAGGAUAUACAUGAGGAUCACCCAUGUUGAUGGAAACGUCAGAGAAAGAAGGUAGAAGGCACAAGAA [JR_Exclusion3_Sub6] | 54.1 | 51.2 |
| UUUCACCUAGGAUAUACAUGAGGAUCACCCAUGUGAGGCGAAGGACGGAGGGAUGGUAGUAGAAGGAGGACAAG [Mod of Gedier] | 21.6 | 19.5 |
| AAUCCACAUGAGGAUCACCCAUGUGAGGAUAUCGUGCAGAAAAAAAAAAAAAACUGCACGAGAAGGCACAUGGA | 20.2 | 35.1 |
| CUCUUGUGAGGAUAUCCAUGAAAUGAAGUGAAAGAAAAGAAGGAGAAGGCACAUGAGGAUCACCCAUGUUAGAA [EteRNA is fun!] | 24.3 | 49.6 |
| AAAAAGUGAGGAUAUACAGAUAAAAAAACGAAAAAAAAUCUGUAGAAGGCACAUGAGGAUCACCCAUGUAAAAA [Ex 4 May 3] | 39 | 43.4 |
| UGCUAGUCAGGAUAUACGAACAUGUCAAAAGACGUGAAGGGACAUGAGGAUCACCCAUGUAGAAGGGACUAGCA [salish99-Ex2-18] | 121 | 37.5 |
| GGAAAACAUGAGGAUCACCCAUGUGAGGAUAUUGAAACAAACAAAACAAACAAACAAACAAGAAGGCACAGGAA [Exclusion one redone] | 20.1 | 20.7 |
| AAUAAACAUGAGGAUCACCCAUGUCAGGAUAUGCAUCUAACAUAAUAACAUAAAUACAGCAGAAGGGACUAAUA [JR_Exc001_Sub601] | 20.6 | 30.3 |
| GAAAAACAUGAGGAUCACCCAUGUAAGGAUAUGCUAAAAAACACGGAAAAACGUGAUAGCAGAAGGUACAAAAA [Mat - Exclusion 1 - Eli mod - D89] | 36.5 | 24.1 |
| AAAAAGUGAGGAUAUACGUUAAAAAAAAAAAAAAAAAAGCAGUAGAAGGCACAUGAGGAUCACCCAUGUAAAAA [Ex4 Malc#2] | 26 | 41.3 |
| AAAAAGUGAGGAUAUACAUGAGGAUCACCCAUGUAAAAGGUCGCGGGAGCGGAGGACGGUAGAAGGCGCAAAAA [Excls3-VIIi] | 28.9 | 25.3 |
| GAGAGACAUGAGGAUCACCCAUGUGAGGAUAUCGGGAGGAGGAGGAGGAGGAGGAGGACGAGAAGGCACGGAAG [salish99-Ex1-06] | 35.3 | 21.6 |
